# Test results reported in patent US20200016266A1.
# Biological target: recombinant extracellular domain of human VEGFR2 (rhVEGFR2), expressed in human cells (Sino Biological Inc.) (human) (UniProt P35968)
# Assay: FRET fluorescence spectroscopy, 0.5 µM 488-VEGFR2 titrated with 594-Gal1, emission at 518 nm
# Chain of recombinant extracellular domain of human VEGFR2 (rhVEGFR2), expressed in human cells (Sino Biological Inc.) (human) (P35968 20-764 limits assumed): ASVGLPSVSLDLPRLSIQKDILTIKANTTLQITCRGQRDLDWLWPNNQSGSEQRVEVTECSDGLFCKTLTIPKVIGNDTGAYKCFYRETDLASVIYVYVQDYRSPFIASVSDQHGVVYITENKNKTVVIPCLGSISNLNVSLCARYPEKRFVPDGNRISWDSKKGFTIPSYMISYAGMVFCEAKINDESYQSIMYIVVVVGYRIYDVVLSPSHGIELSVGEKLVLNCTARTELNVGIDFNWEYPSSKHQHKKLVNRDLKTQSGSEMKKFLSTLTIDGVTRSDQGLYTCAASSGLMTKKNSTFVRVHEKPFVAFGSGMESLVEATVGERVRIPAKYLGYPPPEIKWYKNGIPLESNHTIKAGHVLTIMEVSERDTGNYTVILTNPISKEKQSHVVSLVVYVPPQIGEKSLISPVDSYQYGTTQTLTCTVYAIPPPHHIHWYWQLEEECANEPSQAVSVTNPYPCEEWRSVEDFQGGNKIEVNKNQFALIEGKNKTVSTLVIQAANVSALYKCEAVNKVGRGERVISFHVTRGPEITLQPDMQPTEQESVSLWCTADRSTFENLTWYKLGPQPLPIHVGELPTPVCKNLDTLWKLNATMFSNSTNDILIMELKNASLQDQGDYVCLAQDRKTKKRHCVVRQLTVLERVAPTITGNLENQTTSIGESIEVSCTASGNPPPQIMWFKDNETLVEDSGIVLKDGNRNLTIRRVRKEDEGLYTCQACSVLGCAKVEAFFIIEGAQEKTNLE
substance,measurement,value
Galectin-1 (human recombinant Gal1) (from UniProt P09382 2-135) (ligand),EC50 (read off the curve),7 µM
